From patent publication US20050064507A1, “Determining kinase specificity” (priority 2003, published 2005)

Experiments:
PKC-alpha = target: T1, PKC-alpha (Homo sapiens, UniProt P17252); assay: In vitro kinase assay: peptide phosphorylation by PKC-alpha; format: biochemical; conditions: for PKC alpha phosphorylation: normalized to best substrate
T1 construct: purchased Calbiochem
Protocol: Catalytically active preparations of the kinases of interest were either purchased or prepared. Purchased and tested active kinase preparations including the following: PKC-alpha, PKC-delta, PKC-epsilon, PKC-zeta, PKC-mu, PKA, PKG from Calbiochem, ROK alpha/ROCK-II, active from Upstate Biotechnology, and AKT1 from Panvera.
The conditions of the kinase assay and the amount of active kinase used varied with the kinase and with the accuracy needed. For a typical experiment, 5-20 ng of kinase was used per well and each peptide pool was assayed in duplicate wells. Note that the absolute amount of kinase used was not usually a critical parameter, because the desired information related to specificity of the kinase not its absolute activity, and robustness of the assay depends on comparisons of the same amount of kinase on different peptides. The combination of kinase concentration and assay duration was modified to assure that the stoichiometry of peptide phosphorylation never exceeded 5%. The choice of kinase buffer depended on the kinase being analyzed. For studies of PKC, 100 mM HEPES, 0.05% Triton-X100, 1 mM CaCl2, 20 mM MgCl2, 0.2 mg/ml phosphatidyl serine (Avanti Polar Lipids), PMA 100 ng/ml was typically used. The lipid stock was prepared by transferring 3 mg phosphatidyl serine into iced mixture of 450 μl water plus 50 μl of 10% Triton-X100, sonicating 10 times on ice for 1 sec each.
The kinase reaction mixture was assembled by sequential addition to a tube held on ice of: 5 μl peptide (100 μM for final concentration of 10 μM), 15 μl of kinase (typically 5 ng/well, in appropriate kinase buffer), 30 μl of ATP (1 uCi/well of ^32P-gamma ATP in a stock of 167 μM cold ATP in the kinase buffer; for final concentration for 100 μM ATP). The mixture was rapidly warmed to desired reaction temperature (30° C. for PKC) and incubated for the desired duration (usually 10 minutes). The kinase assay was terminated by transfer to 4° C. water batch, and rapid addition of an equal volume (50 μl) of stop solution [0.1M ATP+0.1M EDTA in water, pH 8].
The peptides were then captured from the reaction mixture by transfer to a Reacti-Bind Streptavidin High Binding Capacity Coated Plates (HBC) (Pierce Biotechnology) as follows. The HBC plates were pre-rinsed three times with PBS/Tween PBS/Tween20 0.05% (PBS/Tween). Part of all of the reaction mixture was then transferred wells of a HBC plate pre-filled with 90 μl of phosphate-buffered saline (PBS); typically each aliquots of each phosphorylation reaction were transferred to duplicate HBC plates to assure accuracy by additional replication
For kinase assays done at the standard peptide concentration of 10 μM, the peptide concentration in the reaction mixture becomes 5 μM after addition of the stop solution; consequently 10 μl of the reaction (50 pMoles of peptide) was transferred to the HBC plate. More generally, the amount of reaction mixture transferred was estimated to be about 50 pMoles of peptide. […] The HBC plates were incubated for 0.5 to 1.5 hr at room temperature for complete binding of biotinylated peptides to plate-bound streptavidin. The HBC plates were then washed extensively with PBS/Tween. Five washes were done routinely and additional wash steps were added if the wash solution removed from the plate had measurable radioactivity as detected using a Geiger counter. This step is essential to obtaining a good the signal to noise ratio because the fraction of radioactivity incorporated in the peptides was a tiny fraction of the total in the reaction mixture. The wells were air-dried. A volume of 40-50 μl of microScint-20 (Packard Instruments) was added to each well. The plates were covered with stick-on film sheet. Radioactive emissions were measured in a TopCount NXT Microplate Scintillation and Luminescence Counter (Packard Instruments). Typically samples were counted for 5 minutes (or more) to improve the signal to noise ratio when counts were low. […]

PKC-theta = target: T2, PKC-theta (Homo sapiens, UniProt Q04759); assay: In vitro kinase assay: peptide phosphorylation by PKC-theta; format: biochemical; conditions: for PKC theta phosphorylation: normalized to best substrate
T2 construct: His-tag; made in house; host or cells: baculovirus-infected Sf9 cells
Summary of the method: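 Recombinant human PKC-theta, expressed in baculovirus-infected Sf9 cells and purified on a nickel chelating column, was incubated with biotinylated peptides, 100 μM ATP containing ^32P-gamma ATP, and PKC buffer with CaCl2, MgCl2, phosphatidyl serine and PMA at 30° C. Reactions were stopped with ATP/EDTA. Peptides were captured on streptavidin-coated plates, and phosphorylation was normalized to the best substrate.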

T2 sequence (Q04759 whole entry): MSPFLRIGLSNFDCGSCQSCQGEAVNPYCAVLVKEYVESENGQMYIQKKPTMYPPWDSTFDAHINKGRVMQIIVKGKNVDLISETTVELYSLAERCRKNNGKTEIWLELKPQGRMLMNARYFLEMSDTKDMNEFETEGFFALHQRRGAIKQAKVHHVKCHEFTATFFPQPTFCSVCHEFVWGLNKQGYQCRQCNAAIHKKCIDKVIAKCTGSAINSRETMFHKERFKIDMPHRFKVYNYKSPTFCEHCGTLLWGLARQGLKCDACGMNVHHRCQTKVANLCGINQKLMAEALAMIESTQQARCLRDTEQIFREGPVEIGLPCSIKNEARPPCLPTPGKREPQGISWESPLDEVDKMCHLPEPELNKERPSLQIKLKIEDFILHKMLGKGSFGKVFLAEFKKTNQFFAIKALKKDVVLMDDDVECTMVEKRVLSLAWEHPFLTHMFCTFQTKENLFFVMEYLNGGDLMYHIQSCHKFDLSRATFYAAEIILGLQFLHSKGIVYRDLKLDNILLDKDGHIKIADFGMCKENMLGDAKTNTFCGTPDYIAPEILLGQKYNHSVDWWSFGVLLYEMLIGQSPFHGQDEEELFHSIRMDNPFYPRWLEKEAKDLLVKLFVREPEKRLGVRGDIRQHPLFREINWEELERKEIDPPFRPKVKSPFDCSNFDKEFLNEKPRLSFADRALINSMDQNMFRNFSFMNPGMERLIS

Substance: 146 (QAQRQIKRGAPPRRSSIRNA) [compound 146]
- phosphorylation by PKC alpha (PKC-alpha; peptide concentration 1 uM): 20
- phosphorylation by PKC alpha (PKC-alpha; peptide concentration 10 uM): 24
- phosphorylation by PKC theta (PKC-theta; peptide concentration 1 uM): 33
- phosphorylation by PKC theta (PKC-theta; peptide concentration 10 uM): 34

Substance: 147 (RDIRQSPKRGFLRSASLGRR) [compound 147]
- phosphorylation by PKC alpha (PKC-alpha; peptide concentration 1 uM): 13
- phosphorylation by PKC alpha (PKC-alpha; peptide concentration 10 uM): 16
- phosphorylation by PKC theta (PKC-theta; peptide concentration 1 uM): 20
- phosphorylation by PKC theta (PKC-theta; peptide concentration 10 uM): 69

Substance: 116 (EEGTFRSSIRRLSTRRR) [compound 116]
- phosphorylation by PKC alpha (PKC-alpha; peptide concentration 1 uM): 70
- phosphorylation by PKC alpha (PKC-alpha; peptide concentration 10 uM): 57
- phosphorylation by PKC theta (PKC-theta; peptide concentration 1 uM): 83
- phosphorylation by PKC theta (PKC-theta; peptide concentration 10 uM): 78

Substance: 155 (RWDKRRWRKIPKRPGSVHRT) [compound 155]
- phosphorylation by PKC alpha (PKC-alpha; peptide concentration 1 uM): 10
- phosphorylation by PKC alpha (PKC-alpha; peptide concentration 10 uM): 12
- phosphorylation by PKC theta (PKC-theta; peptide concentration 1 uM): 23
- phosphorylation by PKC theta (PKC-theta; peptide concentration 10 uM): 26

Substance: 165 (TEEKSKKRKKKHRKNSRKHK) [compound 165]
- phosphorylation by PKC alpha (PKC-alpha; peptide concentration 1 uM): 15
- phosphorylation by PKC alpha (PKC-alpha; peptide concentration 10 uM): 10
- phosphorylation by PKC theta (PKC-theta; peptide concentration 1 uM): 16
- phosphorylation by PKC theta (PKC-theta; peptide concentration 10 uM): 14

Substance: 159 (LYARLARAYRRSQRASFKRA) [compound 159]
- phosphorylation by PKC alpha (PKC-alpha; peptide concentration 1 uM): 21
- phosphorylation by PKC alpha (PKC-alpha; peptide concentration 10 uM): 19
- phosphorylation by PKC theta (PKC-theta; peptide concentration 1 uM): 21
- phosphorylation by PKC theta (PKC-theta; peptide concentration 10 uM): 17

Substance: 128 (QQVDRERPHVRRRRGTFKRS) [compound 128]
- phosphorylation by PKC alpha (PKC-alpha; peptide concentration 1 uM): 25
- phosphorylation by PKC alpha (PKC-alpha; peptide concentration 10 uM): 33
- phosphorylation by PKC theta (PKC-theta; peptide concentration 1 uM): 41
- phosphorylation by PKC theta (PKC-theta; peptide concentration 10 uM): 59

Substance: 101 (GAPPRRSSIRNAH) [compound 101]
- PKC alpha phosphorylation (PKC-alpha): 32%
- PKC theta phosphorylation (PKC-theta): 29%

Substance: 121 (LRRRSLRRSNSISKSPGP) [compound 121]
- phosphorylation by PKC alpha (PKC-alpha; peptide concentration 1 uM): 33
- phosphorylation by PKC alpha (PKC-alpha; peptide concentration 10 uM): 29
- Peptide phosphorylation by PKC-theta (PKC-theta; Table 8): 57
- phosphorylation by PKC theta (PKC-theta; peptide concentration 1 uM): 51
- phosphorylation by PKC theta (PKC-theta; peptide concentration 10 uM): 57

Substance: 122 (RAITSTLASSFKRRR) [compound 122]
- phosphorylation by PKC alpha (PKC-alpha; peptide concentration 1 uM): 43
- phosphorylation by PKC alpha (PKC-alpha; peptide concentration 10 uM): 44
- phosphorylation by PKC theta (PKC-theta; peptide concentration 1 uM): 66
- phosphorylation by PKC theta (PKC-theta; peptide concentration 10 uM): 42

Substance: 105 (ALRRPSLRREADD) [compound 105]
- PKC alpha phosphorylation (PKC-alpha): 26%
- PKC theta phosphorylation (PKC-theta): 21%

Substance: 104 (EKIKRSSLKKVDSLKK) [compound 104]
- PKC alpha phosphorylation (PKC-alpha): 34%
- PKC theta phosphorylation (PKC-theta): 25%

Substance: 110 (EGGDRRASGRRK) [compound 110]
- PKC alpha phosphorylation (PKC-alpha): 30%
- PKC theta phosphorylation (PKC-theta): 22%

Substance: 86 (RQRKRKLSFRRRTDKD) [compound 86]
- PKC alpha phosphorylation (PKC-alpha): 47%
- PKC theta phosphorylation (PKC-theta): 38%
